# Test results reported in the nanobody polyreactivity screen of Harvey et al. (2022).
# Experiment: yeast display, Sf9 membrane polyspecificity reagent, FACS + sequencing; frameworks hold sequencing errors
# In short: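 After 36–48 hours of galactose induction, yeast (Saccharomyces cerevisiae BJ5465) displaying a synthetic nanobody library were stained at 4 °C for 1 hour with 10% biotinylated, detergent-solubilized Sf9 membrane reagent. Streptavidin microbeads enriched the stained cells before FACS sorting into low and high (top ~1%) gates on anti-HA and streptavidin fluorescence. Each clone's polyreactivity label reflects its gate of origin.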
row,Sequence,polyreactivity (PSR sort gate)
1,QVQLVESGGGLVQAGGSLRLSCAASGRTFAWYAMGWYRQAPGKERELVAAISWSSDTTYYADSVKGRFTITRDNAKNTVYLQMNSLKPEETAVYYCAAVFQGYTRKYYYWGQGTQVTVSS,high polyreactivity
2,QVQLVESGGGLVQAGGSLRLSCAASGRTFAWYAMGWYRQAPGKERELVAVIRRGSGDTYYADSVKGRFTISRDNAKNTVYLQMNSLKPEDTAVYYCAAEGRFSFYGGGRPKYSRYDYWGQGTQVTVSS,high polyreactivity
3,QVQLVESGGGLVQAGGSLRLSCAASGRTFAYNAMGWYRQAPGKERELVAAISRRGGSTFYADSVKGRFTISRDNAKNTVYLQMNSLKPEDTAVYYCARDSYYIGRWLYYWGQGTQVTVSS,high polyreactivity
4,QVQLVESGGGLVQAGGSLRLSCAASGRTFAYNAMGWYRQAPGKERELVAAITFGGGSTYYADSVKGRFTISRDNAKNTVYLQMNSLKPEDTAVYYCTAERGYYYHFGYWGQGTQVTVSS,high polyreactivity
5,QVQLVESGGGLVQAGGSLRLSCAASGRTFAYYAMGWYRQAPGKERELVAAITQSGGRTYYADSVKGRFTISRDNAKNTVYLQMNSLKPEDTAVDYCAARRISGKWEYDYWGQGTQVTVSS,high polyreactivity
6,QVQLVESGGGLVQAGGSLRLSCAASGRTFCSNAMGWYRPAPGKERELVAAISNGDNTYYADSVKGRFTISRDNAKNTVYLQMNSLKPEDTAVYYCNADYTVYDTEYDYWGQGTQVTVSS,low polyreactivity
7,QVQLVESGGGLVQAGGSLRLSCAASGRTFDFYAMGWYRQAPGKERELVAAITFSTGSTTYADSVKGRFTISRDNAKNTVYLQMNSLKPEDTAVYYCGADGDGWWWSYVDRYDYWGQGTQVTVSS,low polyreactivity
8,QVQLVESGGGLVQAGGSLRLSCAASGRTFDFYVMGWYRHAPGKERELVAAISSGGSTNYADSVKGRFTISRDNAKYTVYLQMNSLKPEDTAVYYCAADPSGDYWGQGTQVTVSS,low polyreactivity
9,QVQLVESGGGLVQAGGSLRLSCAASGRTFDGNAMGWYRQAPGKERELVAAISKRGGTTYYADSVKGRFTISRDNAKNTVYLQMNSLKPEDTAVYYCAAPYNTYSYSEGEYWGQGTQVTVSS,low polyreactivity
10,QVQLVESGGGLVQAGGSLRLSCAASGRTFDGNVMGWYRQAPGKERELVAAITASGGRTYYADSVKGRFTISRDNAKNTVYLQMNSLKPEDTAVYFCAADPTYLRTLRFGSYDYWGQGTQVTVSS,high polyreactivity
11,QVQLVESGGGLVQAGGSLRLSCAASGRTFDGYTMGWYRQAPGKERELVAAIRRSGGSTYYADSVKGRFTISRDNAKNTVYLQINSLNPEDTAVYYCAASWRDIYRHYNVYPYDYWGQGTQVTVSS,low polyreactivity
12,QVQLVESGGGLVQAGGSLRLSCAASGRTFDGYVMGWYRQAPGKERELVAAISWGGSSTYYADSVKGRFTISRDNAKNTVYLQMNSLKPEDTAVYYCAKDTVPYERDYWGQGTQVTVSS,low polyreactivity
13,QVQLVESGGGLVQAGGSLRLSCAASGRTFDINAMGWYRQAPGKERELVAAISGRGGRTYYADSVKGRFTISRDNAKNTVYLQMNSLKPEDSAVYYCAARAQWSSLEYWGQGTQVTVSS,high polyreactivity
14,QVQLVESGGGLVQAGGSLRLSCAASGRTFDLNDMGWYRQAPGKERELVAGINSGGSTKYADSVKGRFTISRDNAKNTVSLQMNSLKPEDTAVYYCATRWPGGSRWPFYLTYDYWGQGTQVTVSS,low polyreactivity
15,QVQLVESGGGLVQAGGSLRLSCAASGRTFDLYAMGWYRQAPGKEREFVAAISWRGGRTYYADSVKGRFTISRDNAKNTVYLQMNSQKPEDTAVYYCAARTGATSRIRFDYWGQGTQVTVSS,low polyreactivity
16,QVQLVESGGGLVQAGGSLRLSCAASGRTFDPNAMGWYRPAPGKERELVAAISSSAGSTYYADSVKGRFTISRDNAKNTVYLQMNSLNPEDPALYFCAAGSGTFVTRYRYGYWGQGTQVTVSS,high polyreactivity

row,Sequence,polyreactivity (PSR sort gate)
1,QVQLVESGGGLVQAGGSLRLSCAASGRTFDRNAMGWYRQAPGKEREFVAAISYRGASTYADSVKGRFTISRDNAKNTVYLQMNSLKPEDTAVYYCAARVTYYGTSGYYYWGQGTQVTVSS,high polyreactivity
2,QVQLVESGGGLVQAGGSLRLSCAASGRTFDRNAMGWYRQAPGKERELVAAISRGGTTYYADSVKGRFTISRDNAKNTVYLQMNSLKPEDTAVYYCARVGRYRYEWGQGTQVTVSS,high polyreactivity
3,QVQLVESGGGLVQAGGSLRLSCAASGRTFDRNAMGWYRQAPGKERELVAAITSRGGRTYYADSVKGRFTISRDNAKNTVYLQMNSLKPEDTAVYYCNAARGWGYDSWGQGTQVTVSS,high polyreactivity
4,QVQLVESGGGLVQAGGSLRLSCAASGRTFDRNAMGWYRQAPGQERELVAAITSRGGRTYYADSVKGRFTISRDNEKNTVYLQMNSLKPADTAVYYCAADLFSSRVRSNFDYWGQGTQVTVSS,high polyreactivity
5,QVQLVESGGGLVQAGGSLRLSCAASGRTFDRYAMGWYRQAPGKERELVAAITWSGGRTYYADSVKGRFTISRDNAKNTVYLQINSLKPEDTAVYYCAAAPRSYFTSEYWGQGTQVTVSS,low polyreactivity
6,QVQLVESGGGLVQAGGSLRLSCAASGRTFDSNAMGWYRQAPGKERELVAAIYADSVKGRFTISRDNAKNTVYLQMNSLKPEDTAVYYCAAETYSGQTYLGEYDYWGQGTEVTVSS,low polyreactivity
7,QVQLVESGGGLVQAGGSLRLSCAASGRTFDTNAMGWYRQAPGKERELVAAISWSAGRTYYADSVKGRFTISRDNAKNTVYLQMNSLKPEDTAVYYCAARPPFIAYSWQKQGYYWGQGTQVTVSS,low polyreactivity
8,QVQLVESGGGLVQAGGSLRLSCAASGRTFDTYAMGWYRQAPGKEREFVARISYGGGITYYADSVKGRFTISRDNAKNTVYLQMNSLKPEDTAVYYCAARRFRTYDFYYWGQGTQVTVSS,high polyreactivity
9,QVQLVESGGGLVQAGGSLRLSCAASGRTFDVNAMGWYRQAPGKERELVAAIRISGGSTYYADSVKGRFTISRDNAKNTVYLQMNSLKPEDTAVYYCAAYERRYRNAYDYWGQGTQVTVSS,high polyreactivity
10,QVQLVESGGGLVQAGGSLRLSCAASGRTFDVNAMGWYRQAPGKERELVAAITWDGGSTYYADSVKGRFTISRDNAKNTVYLQMNSLKPEDTALYYCAADFIQGAWWYVTYRYTYEYWGQGTQVTVSS,low polyreactivity
11,QVQLVESGGGLVQAGGSLRLSCAASGRTFDVYAMGWYRQAPGKERELVATISYRSARTYYADSVKGRFTISRDNAKNTVYLQMNSLKPEDTAVYYCNAQSWRLYGHCYYWGQGTQVTVSS,high polyreactivity
12,QVQLVESGGGLVQAGGSLRLSCAASGRTFDWNAMGWYRQAPGKERELVAAISGGGGSTYYADSVKGRFTISRDNAKNTVYLQMNSLKPEDTEVYYCATWNYYSYHRYDYWGQGTQVTVSS,high polyreactivity
13,QVQLVESGGGLVQAGGSLRLSCAASGRTFDYNAMGWYRQAPGKERELVAAISGSGTRTFYADSVKGRFTISRDNAKNTVYLQMNSLKPEDTAVYYCAASHGWSKSIFYYWGQGTQVTVSS,high polyreactivity
14,QVQLVESGGGLVQAGGSLRLSCAASGRTFDYNAMGWYRQAPGKERELVAAISSSGGSTYYADSVKGRFTISRDNAKNTVYLQMNSLKPEDTAVYYCDKRRNLWGYEYDSWGQGTQVTVSS,high polyreactivity
15,QVQLVESGGGLVQAGGSLRLSCAASGRTFDYNAMVWYRQAPGKERELVAAISGSGTRTFYADSVKGRFTISRDNAKNTVYLLMNSLKPVDTAVYYCAASHGWSKSIFYYWGQGTQVTVSS,high polyreactivity
16,QVQLVESGGGLVQAGGSLRLSCAASGRTFDYYAMGWYRQAPGKERELVAAIRLISGNRYYADSVKGRFTISRDNAKNTVYLQMNSLKPEDTAVYYCAARSDGVPSLYGGMDYWRQGTQVTVSS,low polyreactivity
